The source of these data is paper PMC6047474.

Assay [1] deals with Histones (bovine), Sigma-Aldrich H9250 (bovine). As to the kind of experiment: ITC.
Assay [2] has the same target. Kind of assay: ITC. The source holds these as a separate data set.

Like-named read-outs stand apart in the source and are kept apart here.

Broadly, the Kd is the equilibrium constant for the complex coming apart. Low readings indicate a tighter complex, high ones a looser complex. Take βL-crystallin (complex): in assay [1], the Ka is 1.35e+06 M⁻¹, the Kd came out at 743 nM and the dH is -8.86 kcal/mol. In assay [2], this molecule yielded a Ka of 1.15e+07 M⁻¹, a Kd of 86.4 nM and a dH of -10.7 kcal/mol.
In the case of γ-crystallin, in assay [1], the Ka was 9.79e+06 M⁻¹, the dissociation constant (Kd) came out at 102 nM and the dH is -15.8 kcal/mol. In assay [2], this molecule came in with a Ka of 7.85e+06 M⁻¹, a Kd of 127 nM and a dH of -13.4 kcal/mol.

B1: α-crystallin (complex)
chain 1: MDIAIQHPWFKRALGPFYPSRLFDQFFGEGLFEYDLLPFLSSTISPYYRQSLFRTVLDSGVSEVRSDRDKFVIFLDVKHFSPEDLTVKVQEDFVEIHGKHNERQDDHGYISREFHRRYRLPSNVDQSALSCSLSADGMLTFSGPKVPSGVDAGHSERAIPVSREEKPSSAPTS
chain 2: MDIAIHHPWIRRPFFPFHSPSRLFDQFFGEHLLESDLFPASTSLSPFYFRPPSFLRAPSWIDTGLSEMRLEKDRFSVNLDVKHFSPEELKVKVLGDVIEVHGKHEERQDEHGFISREFHRKYRIPADVDPLTITSSLSSDGVLTVNGPRRQASGPERTIPITREEKPAVTAAPKK
Turning to B1, in assay [1], the Ka worked out at 3.42e+07 M⁻¹ and the Kd worked out at 29.3 nM. In assay [2], the Kd stood at 400 nM and the dH was -6.29 kcal/mol.
